The series “crystal structure” concerns the molecule itself. As to the kind of experiment: crystal structure.
Series [1] deals with the molecule itself.

Numbering of substitutions follows the chain as printed. Names and notes keep the numbering of the source. Read-outs that look alike come from different tables or passages of the source.

B1: Escherichia coli dGTPase, wild type (enzyme)
chain: MAQIDFRKKINWHRRYRSPQGVKTEHEILRIFESDRGRIINSPAIRRLQQKTQVFPLERNAAVRTRLTHSMEVQQVGRYIAKEILSRLKELKLLEAYGLDELTGPFESIVEMSCLMHDIGNPPFGHFGEAAINDWFRQRLHPEDAESQPLTDDRCSVAALRLRDGEEPLNELRRKIRQDLCHFEGNAQGIRLVHTLMRMNLTWAQVGGILKYTRPAWWRGETPETHHYLMKKPGYYLSEEAYIARLRKELNLALYSRFPLTWIMEAADDISYCVADLEDAVEKRIFTVEQLYHHLHEAWGQHEKGSLFSLVVENAWEKSRSNSLSRSTEDQFFMYLRVNTLNKLVPYAAQRFIDNLPAIFAGTFNHALLEDASECSDLLKLYKNVAVKHVFSHPDVERLELQGYRVISGLLEIYRPLLSLSLSDFTELVEKERVKRFPIESRLFHKLSTRHRLAYVEAVSKLPSDSPEFPLWEYYYRCRLLQDYISGMTDLYAWDEYRRLMAVEQ
For orientation: stoichiometry N means the number of molecules, sites or subunits per partner or assembly. On to B1, for which, in the series “crystal structure”, the “stoichiometry N” value was determined as 6.

B2: Escherichia coli dGTPase H126A (enzyme)
chain: B1 chain with H126A
As to B2, the “stoichiometry N” value in series [1] is 6.

B3: Escherichia coli dGTPase Y272A (enzyme)
chain: B1 chain with Y272A
On to B3, for which the “stoichiometry N” value in series [1] was 6.

B4: Escherichia coli dGTPase E129A (enzyme)
chain: B1 chain with E129A
With B4, in series [1], the “stoichiometry N” value came out at 6.

(Values after publication PMC6511015 (Proceedings of the National Academy of Sciences of the …, 2019).)
